Experimental findings from patent US20250326860A1 (ADAGENE PTE, published 2025) are described below.

Positions count from the first letter of the chain named. Where “and” joins values, the source holds several entries; their conditions need not be identical. Equal entries are not always repeated.

Assay [1] has as its target T1, human CD3 on cells (Jurkat cells, human T cells) (human, UniProt P07766 23-207).
T1 construct: whole, on cells
Nature of the assay: binding to human CD8+ T cells.

In assay [2] the target is T2, human CD20 on cells (human B cells; Raji, SU-DHL-8, SU-DHL-4, A3KAW, NAMALWA) (human, UniProt P11836 1-297).
T2 construct: whole, on cells
T2 sequence (looked up): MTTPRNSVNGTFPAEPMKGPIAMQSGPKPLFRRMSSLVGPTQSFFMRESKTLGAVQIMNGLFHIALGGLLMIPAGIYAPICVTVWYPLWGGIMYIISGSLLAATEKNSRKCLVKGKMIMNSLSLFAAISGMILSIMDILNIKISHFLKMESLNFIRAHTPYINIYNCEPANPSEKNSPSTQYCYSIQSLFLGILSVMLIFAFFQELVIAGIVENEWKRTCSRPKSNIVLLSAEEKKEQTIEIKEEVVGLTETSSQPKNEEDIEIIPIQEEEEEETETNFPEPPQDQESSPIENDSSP
Nature of the assay: binding to Raji cells.

For assay [3], the target named is T3, cynomolgus monkey CD3 on T cells (cynomolgus monkey, UniProt Q95LI5 22-198).
T3 construct: whole, on cells
Put plainly: flow cytometry, monkey CD3+ T cells. An excerpt: (§1) Human PBMCs were freshly isolated from the blood of healthy donors by density gradient centrifugation using Histopaque-1077 (Sigma). Human CD3+ T cells were further isolated from PBMCs using the Human T Cell Enrichment Kit (Stem Cell Technologies). Monkey PBMCs were isolated from a naïve cynomolgus monkey by density gradient centrifugation using Histopaque-1077 (Sigma). Monkey CD3+ T cells were isolated from PBMCs using the Pan T Cell Isolation Kit Non-Human Primate (Miltenyi Biotec). Purified human or monkey CD3+ T cells were stained with the testing antibodies as the primary antibody and the APC-labelled anti-human-Fc antibody (BioLegend) as the secondary antibody. After washing, the cells were analyzed on the CytoFLEX flow cytometer (Beckman Coulter) and the data was analyzed by FlowJo software.
(In flow cytometry, cells or beads pass a laser one at a time.)

The target in assay [4] is T2, human CD20 on cells (human B cells; …). Put plainly: flow cytometry, SU-DHL-8 cells. How it is done: (§2) Raji, SU-DHL-8, SU-DHL-4, A3KAW and NAMALWA were B-cell lymphoma cell lines with various CD20 expression levels on cell surface. Briefly, the test antibodies were serial diluted and were incubated with the tumor cells on ice. After washing, the cells were subsequently incubated with the APC-labelled anti-human-Fc secondary antibody (BioLegend) on ice. The cells were then washed with PBS prior to analysis by the CytoFLEX flow cytometer (Beckman Coulter). The data was analyzed by FlowJo software.

Assay [5] has the same target. Put plainly: binding to human B cells.
The target is the same in assay [6]. Put plainly: flow cytometry, human B cells. The text has this:
(§3) Human and monkey PBMCs were isolated as mentioned above. Human B cells were further isolated from PBMCs using the EasySep™ Human B Cell Isolation Kit (Stem Cell Technologies). Monkey B cells were isolated from PBMCs using the Non-Human B Primate Cell Isolation Kit (Stem Cell Technologies). Purified human or monkey B cells were stained with the testing antibodies as the primary antibody and the APC-labelled anti-human-Fc antibody (BioLegend) as the secondary antibody. After washing, the cells were analyzed on the CytoFLEX flow cytometer (Beckman Coulter) and the data was analyzed by FlowJo software.

For assay [7] the target is unchanged. Nature of the assay: flow cytometry, NAMALWA cells. As for the experimental part: as §2
Assay [8] concerns the target T4, cynomolgus monkey CD20 on B cells (cynomolgus monkey, UniProt M4ZHZ6 1-297).
T4 construct: whole, on cells
T4 sequence: T2 sequence (looked up) with S25P, F31L, T51A, A157V, K217R, N226S, I227V, T239V
Nature of the assay: flow cytometry, monkey B cells.
Excerpt: as §3

The target of assay [9] is T1, human CD3 on cells (Jurkat cells, human …). Nature of the assay: flow cytometry, human CD3+ T cells.
Excerpt: as §1

The target in assay [10] is T2, human CD20 on cells (human B cells; …). Nature of the assay: flow cytometry, Raji cells. How it is done:
as §2

Assay [11] addresses T3, cynomolgus monkey CD3 on T cells. Put plainly: flow cytometry, purified monkey CD3+ T cells.
Assay [12] addresses T1, human CD3 on cells (Jurkat cells, human …). Nature of the assay: binding to human CD3+ T cells.
Assay [13] has as its target T2, human CD20 on cells (human B cells; …). Nature of the assay: flow cytometry, SU-DHL-4 cells. How it is done: as §2
The target of assay [14] is T1, human CD3 on cells (Jurkat cells, human …). Nature of the assay: binding to human CD4+ T cells.
In assay [15] the target is T2, human CD20 on cells (human B cells; …). Nature of the assay: flow cytometry, A3KAW cells. How it is done: as §2
In assay [16] the target is T1, human CD3 on cells (Jurkat cells, human …). Nature of the assay: cell-based or functional assay.
Assay [17] has the same target. Nature of the assay: flow cytometry on Jurkat cells, APC anti-human IgG secondary antibody. As for the experimental part: The Jurkat cells were thawed, washed, and cultured in an incubator. Jurkat cells were washed and 1×10⁵ Jurkat cells/well were aliquoted into 96-well plate and incubated with test articles for 1 hour at 4° C. After centrifugation and washing, Jurkat cells were further incubated with the secondary antibody APC anti-Human IgG for 30 minutes at 4° C. After centrifugation and washing, the Jurkat cells labelled with antibodies were re-suspended in 2% FBS DPBS and then were analyzed by FACS.

T1 sequence (P07766 23-207): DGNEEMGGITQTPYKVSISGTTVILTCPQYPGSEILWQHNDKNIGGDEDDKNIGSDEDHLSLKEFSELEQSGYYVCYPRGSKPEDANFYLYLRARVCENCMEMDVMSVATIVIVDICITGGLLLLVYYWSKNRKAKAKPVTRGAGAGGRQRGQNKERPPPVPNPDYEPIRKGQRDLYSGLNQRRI
T3 sequence (Q95LI5 22-198): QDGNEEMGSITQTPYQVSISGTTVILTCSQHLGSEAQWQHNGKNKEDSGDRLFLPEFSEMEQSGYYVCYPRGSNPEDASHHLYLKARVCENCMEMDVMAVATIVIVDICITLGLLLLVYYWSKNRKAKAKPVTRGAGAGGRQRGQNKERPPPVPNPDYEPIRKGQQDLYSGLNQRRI

B1: TY25606 (bispecific antibody, human IgG1, kappa, N297A)
light: QIVLSQSPAILSASPGEKVTMTCRASSSVSYIHWFQQKPGKSPKPWIYATSNLASGVPVRFSGSGSGTSYSLTISRVEAEDAATYYCQQWTSNPPTFGGGTKVEIKRTVAAPSVFIFPPSDEQLKSGTASVVCLLNNFYPREAKVQWKVDNALQSGNSQESVTEQDSKDSTYSLSSTLTLSKADYEKHKVYACEVTHQGLSSPVTKSFNRGEC
heavy: EVQLVQSGAEVKKPGSSVKVSCKASGYTFTSYNMHWVRQAPGKGLEWIGAIYPGSGDTSYNQKFKGRVTITADKSTSTAYMELSSLRSEDTAVYYCARSTYYGGDWYFNVWGQGTLVTVSSASTKGPSVFPLAPSSKSTSGGTAALGCLVKDYFPEPVTVSWNSGALTSGVHTFPAVLQSSGLYSLSSVVTVPSSSLGTQTYICNVNHKPSNTKVDKKVEPKSCDKTHTCPPCPAPELLGGPSVFLFPPKPKDTLMISRTPEVTCVVVDVSHEDPEVKFNWYVDGVEVHNAKTKPREEQYASTYRVVSVLTVLHQDWLNGKEYKCKVSNKALPAPIEKTISKAKGQPREPQVYTLPPSRKKLTKNQVKLTCLVKGFYPSDIAVEWESNGQPENNYKTTPPVLDCDGSFFLYSKLTVDKSRWQQGNVFSCSVMHEALHNHYTQKSLSLSPGK
chain: EVGSYPYDDPDCPSHESDCDQGGGPLGLAGGSQAVVTQEPSLTVSPGGTVTLTCGSSTGAVTTSNYPNWVQQKPGQAPRGLIGGTNKRAPGVPARFSGSLLGGKAALTLSGAQPEDEAEYYCALWYSNLWVFGGGTKLTVLGGGGSGGGGSGGGGSGGGGSEVQLVESGGGLVQPGGSLRLSCAASGFTFNTYAINWVRQAPGKGLEWVGRIRSKYNNYATYYAESVKGRFTISRDDSKNTLYLQINSLRAEDTAVYYCVRHGNFGTSYVSWFAYWGQGTLVTVSSEPKSSDKTHTCPPCPAPELLGGPSVFLFPPKPKDTLMISRTPEVTCVVVDVSHEDPEVKFNWYVDGVEVHNAKTKPREEQYASTYRVVSVLTVLHQDWLNGKEYKCKVSNKALPAPIEKTISKAKGQPREPQVYTDPPSRDELTKNQVSLTCLVDGFYPSDIAVEWESNGQPENCYKTTPPVLDSDGSFFLYSKLTVDKSRWQQGNVFSCSVMHEALHNHYTQDSLSLSPGK
notes: also called SAFEbody/bispecific
Broadly, the EC50 is the concentration needed to bring the measured effect to its halfway point. Take B1: the concentration for a half-maximal effect (EC50) in assay [1] is > 2000 nM; in assay [2], 35 nM; in assay [4] it was 43 nM; in assay [5] it was 78.2 nM; in assay [6] it was 11.7 nM; in assay [7], 90.4 nM. Also, the EC50 is 14.4 nM in [8]; 35 nM in [10]; > 2000 nM in assay [12]; 16 nM in assay [13]; > 2000 nM in assay [14]; 121 nM in assay [15]. Also, the “max MFI” value in [3] came out at 174 MFI; in [6] it was 51600 MFI; in [8], 36000 MFI; in [9] it was 1090 MFI. For the same molecule, the “Max MFI” value in assay [4] stood at 5790 MFI; in [7] it was 656000 MFI; in assay [10], 24200 MFI; in [13] it was 2.67e+06 MFI; in assay [15] it was 942000 MFI. The binding result in assay [11] is “no binding”.

B2: TAC2225 (antibody, V domains shown)
VH: EVQLVESGGGLVQPGGSLRLSCAASGFTFNTYAMNWVRQAPGKGLEWVGRIRSKYNNYATYYADSVKGRFTISRDDSKNTLYLQMNSLRAEDTAVYYCVRHGNFGNSYVSWFAYWGQGTLVTVSS
VL: QAVVTQEPSLTVSPGGTVTLTCGSSTGAVTTSNYANWVQQKPGQAPRGLIGGTNKRAPGVPARFSGSLLGGKAALTLSGAQPEDEAEYYCALWYSNLWVFGGGTKLTVL
notes: also called parental cross-reactive anti-CD3 antibody; humanized SP34
As a reminder, the EC50 (read off the curve) is the concentration needed to bring the measured effect to its halfway point. As for B2, in assay [16], the “Jurkat NFAT reporter assay EC50” value came out at 0.02 nM and the “Masking efficiency (Jurkat NFAT reporter assay)” value worked out at 1 fold. Moreover, the “EC50 (read off the curve)” value in assay [17] is ~0.7 nM and ~0.3 nM and ~0.5 nM and ~0.6 nM.
